According to patent US20260043020A1, “BINDING MEMBERS WITH ALTERED DIVERSITY SCAFFOLD DOMAINS” (priority 2016, published 2026):

Experiments:
[1] = biological target: human Kv 1.3 (human) (UniProt P22001); test: cell-based or functional assay
[2] = biological target: T1, human ASIC1a (human) (UniProt P78348); test: cell-based or functional assay
T1 sequence (looked up): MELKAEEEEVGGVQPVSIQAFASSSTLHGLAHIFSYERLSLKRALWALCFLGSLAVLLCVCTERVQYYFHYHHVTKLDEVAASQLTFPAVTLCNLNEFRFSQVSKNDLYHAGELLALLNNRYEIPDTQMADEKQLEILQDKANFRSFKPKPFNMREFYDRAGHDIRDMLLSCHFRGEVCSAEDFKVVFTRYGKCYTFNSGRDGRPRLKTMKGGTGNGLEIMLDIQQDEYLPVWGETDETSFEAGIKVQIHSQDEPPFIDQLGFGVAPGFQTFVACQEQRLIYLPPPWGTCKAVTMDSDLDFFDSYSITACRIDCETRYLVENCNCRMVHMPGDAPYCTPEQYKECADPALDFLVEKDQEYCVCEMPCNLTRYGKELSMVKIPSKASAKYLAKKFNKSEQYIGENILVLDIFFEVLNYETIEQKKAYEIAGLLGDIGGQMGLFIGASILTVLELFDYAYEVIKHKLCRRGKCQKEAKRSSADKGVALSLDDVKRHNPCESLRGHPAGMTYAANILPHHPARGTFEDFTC

[3] = biological target: trypsin; test: phage TRF ELISA; GlyAla (Pro3Gly, Arg4Ala) mutant against the clone
[4] = biological target: trypsin; test: monoclonal phage TRF ELISA

Sequence of human Kv 1.3 (human) (P22001 whole entry): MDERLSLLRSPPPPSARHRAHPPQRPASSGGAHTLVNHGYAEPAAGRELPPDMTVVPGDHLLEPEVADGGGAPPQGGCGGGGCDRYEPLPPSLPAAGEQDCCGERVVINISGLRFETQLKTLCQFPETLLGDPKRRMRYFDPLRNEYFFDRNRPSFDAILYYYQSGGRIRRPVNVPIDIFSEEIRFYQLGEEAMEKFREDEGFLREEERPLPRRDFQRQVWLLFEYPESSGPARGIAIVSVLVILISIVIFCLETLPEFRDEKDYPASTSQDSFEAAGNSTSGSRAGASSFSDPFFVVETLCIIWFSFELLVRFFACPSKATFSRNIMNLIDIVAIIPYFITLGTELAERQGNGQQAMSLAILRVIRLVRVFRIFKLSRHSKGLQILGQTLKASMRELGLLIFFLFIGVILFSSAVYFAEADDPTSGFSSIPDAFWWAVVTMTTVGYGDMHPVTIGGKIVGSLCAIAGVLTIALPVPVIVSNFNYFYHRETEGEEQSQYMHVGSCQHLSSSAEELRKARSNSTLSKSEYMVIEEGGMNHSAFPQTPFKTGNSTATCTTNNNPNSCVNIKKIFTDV

B1: KB_A07_Shk (antibody, V domains shown)
VH: EVQLVESGGGLVRPGGSLRLSCAASGFTFSSYAMSWVRQAPGKGLEWVSAISGSGGSTYYADSVKGRFTISRDNTKNSLYLQMTSLRADDTAFYYCVKDFGPGYGTGWFDYWGPGTLVTVSS
VL: NWYQQKPGKAPKLLIYAAGVRSCIDTIPKSRCTAFQCKHSMKYRLSFCRKTCGTCSRSGVPSRFSGSGSGTDFTLTISSLQPEDFATYYCQQGASPPYTFGQGTKVEIKR
[1]
  IC50, inhibition of huKv1.3 currents (QPatch, CHO cells): 40 nM

B2: KB_A07 IgG1 (EETI-II fusion, isotype control) (antibody, V domains shown)
VH: EVQLVESGGGLVRPGGSLRLSCAASGFTFSSYAMSWVRQAPGKGLEWVSAISGSGGSTYYADSVKGRFTISRDNTKNSLYLQMTSLRADDTAFYYCVKDFGPGYGTGWFDYWGPGTLVTVSS
VL: YLNWYQQKPGKAPKLLIYAAGVCPRILMRCKQDSDCLAGCVCGPNGFCGSRSGVPSRFSGSGSGTDFTLTISSLQPEDFATYYCQQGASPPYTFGQGTKVEIKR
[1]
  IC50, inhibition of huKv1.3 currents (QPatch, CHO cells): > 10000 nM
[2]
  % ASIC1a current remaining, 6 µM KnotBody (QPatch, HEK293 cells): 70.9%

B3: KB_A07 MoKa-1 fusion (antibody, V domains shown)
VH: EVQLVESGGGLVRPGGSLRLSCAASGFTFSSYAMSWVRQAPGKGLEWVSAISGSGGSTYYADSVKGRFTISRDNTKNSLYLQMTSLRADDTAFYYCVKDFGPGYGTGWFDYWGPGTLVTVSS
VL: DIQMTQSPSSLSASVGDRVTITCRASQSISSYLNWYQQKPGKAPKLLIYAAGVINVKCSLPQQCIKPCKDAGMRFGKCMNKKCRCYSSRSGVPSRFSGSGSGTDFTLTISSLQPEDFATYYCQQGASPPYTFGQGTKVEIKRT
[1]
  IC50, inhibition of huKv1.3 currents (QPatch, CHO cells): > 10000 nM

B4: KB_A12 Kaliotoxin (KTX) fusion (antibody)
VH: EVQLVESGGGLVRPGGSLRLSCAASGFTFSSYAMSWVRQAPGKGLEWVSAISGSGGSTYYADSVKGRFTISRDNTKNSLYLQMTSLRADDTAFYYCVKDFGPGYGTGWFDYWGPGTLVTVSS
VL: QSVLTQPPSVSEAPRQRVTITCSGSSSNIGNNAVNWYQQLPGKAPKLLIYAAGRGVEINVKCSGSPQCLKPCKDAGMRFGKCMNRKCHCTPKANSGVSDRFSAAKSGTSASLAINGLRSEDEADYYCAAWDDSLNGYVFGTGTKLTVLGQP
[1]
  IC50, inhibition of huKv1.3 currents (QPatch, CHO cells): > 10000 nM

B5: KB_A12 IgG1 (EETI-II fusion, isotype control) (antibody, V domains shown)
VH: EVQLVESGGGLVRPGGSLRLSCAASGFTFSSYAMSWVRQAPGKGLEWVSAISGSGGSTYYADSVKGRFTISRDNTKNSLYLQMTSLRADDTAFYYCVKDFGPGYGTGWFDYWGPGTLVTVSS
VL: AVNWYQQLPGKAPKLLIYAAGRCPRILMRCKQDSDCLAGCVCGPNGFCGANSGVSDRFSAAKSGTSASLAINGLRSEDEADYYCAAWDDSLNGYVFGTGTKLTVLG
[1]
  IC50, inhibition of huKv1.3 currents (QPatch, CHO cells): > 10000 nM
[2]
  % ASIC1a current remaining, 3.3 µM KnotBody (QPatch, HEK293 cells): 67.4%

B6: KB_A07_Kaliotoxin (KTX) (antibody, V domains shown)
VH: EVQLVESGGGLVRPGGSLRLSCAASGFTFSSYAMSWVRQAPGKGLEWVSAISGSGGSTYYADSVKGRFTISRDNTKNSLYLQMTSLRADDTAFYYCVKDFGPGYGTGWFDYWGPGTLVTVSS
VL: DIQMTQSPSSLSASVGDRVTITCRASQSISSYLNWYQQKPGKAPKLLIYAAGVGVEINVKCSGSPQCLKPCKDAGMRFGKCMNRKCHCTPKSRSGVPSRFSGSGSGTDFTLTISSLQPEDFATYYCQQGASPPYTFGQGTKVEIKR
[1]
  IC50, inhibition of huKv1.3 currents (QPatch, CHO cells): 900 nM

B7: KB_A12_Shk (antibody, V domains shown)
VH: EVQLVESGGGLVRPGGSLRLSCAASGFTFSSYAMSWVRQAPGKGLEWVSAISGSGGSTYYADSVKGRFTISRDNTKNSLYLQMTSLRADDTAFYYCVKDFGPGYGTGWFDYWGPGTLVTVSS
VL: NWYQQLPGKAPKLLIYAAGRRSCIDTIPKSRCTAFQCKHSMKYRLSFCRKTCGTCANSGVSDRFSAAKSGTSASLAINGLRSEDEADYYCAAWDDSLNGYVFGTGTKLTVLG
[1]
  IC50, inhibition of huKv1.3 currents (QPatch, CHO cells): 20 nM

B8: KB_A10 (scFv, V domains shown)
VH: EVQLVESGGGLVRPGGSLRLSCAASGFTFSSYAMSWVRQAPGKGLEWVSAISGSGGSTYYADSVKGRFTISRDNTKNSLYLQMTSLRADDTAFYYCVKDFGPGYGTGWFDYWGPGTLVTVSS
VL: AVNWYQQLPGKAPKLLIYAAGGCPRILMRCKQDSDCLAGCVCGPNGFCGSNSGVPDRFSGSKSGNTASLTISGLQSEDEADYYCAAWDDSLSGVVFGGGTQLTVLG
[3]
  % reduction in binding signal: 100%
[4]
  trypsin binding signal (FU): 38800 FU

B9: KB_A11 (scFv, V domains shown)
VH: EVQLVESGGGLVRPGGSLRLSCAASGFTFSSYAMSWVRQAPGKGLEWVSAISGSGGSTYYADSVKGRFTISRDNTKNSLYLQMTSLRADDTAFYYCVKDFGPGYGTGWFDYWGPGTLVTVSS
VL: YLNWYQQKPGKAPKLLIYAAEICPRILMRCKQDSDCLAGCVCGPNGFCGPSSGIPARFSGSGYGTDFTLTINNIESEDAAYYFCLQHDNFPYTFGQGTKVEIKR
[3]
  % reduction in binding signal: 100%
[4]
  trypsin binding signal (FU): 16400 FU

B10: KB_B01 (scFv, V domains shown)
VH: EVQLVESGGGLVRPGGSLRLSCAASGFTFSSYAMSWVRQAPGKGLEWVSAISGSGGSTYYADSVKGRFTISRDNTKNSLYLQMTSLRADDTAFYYCVKDFGPGYGTGWFDYWGPGTLVTVSS
VL: AVNWYQQLPGKAPKLLIYAAAGCPRILMRCKQDSDCLAGCVCGPNGFCGTRSGVSDRFSGSKSGTSASLAISGLRSEDEADYYCAAWDDSLRAYVFGTGTKLTVLG
[3]
  % reduction in binding signal: 95%
[4]
  trypsin binding signal (FU): 57700 FU

B11: KB_B02 (scFv, V domains shown)
VH: EVQLVESGGGLVRPGGSLRLSCAASGFTFSSYAMSWVRQAPGKGLEWVSAISGSGGSTYYADSVKGRFTISRDNTKNSLYLQMTSLRADDTAFYYCVKDFGPGYGTGWFDYWGPGTLVTVSS
VL: AVNWYQQLPGKAPKLLIYAAVGCPRILMRCKQDSDCLAGCVCGPNGFCGTGSGIPERFSGSKSGNTASLTISGLQAEDEGDYYCAAWDDSLSGPVFGGGTKLTVLG
[3]
  % reduction in binding signal: 98%
[4]
  trypsin binding signal (FU): 116000 FU

B12: KB_C07 (scFv, V domains shown)
VH: EVQLVESGGGLVRPGGSLRLSCAASGFTFSSYAMSWVRQAPGKGLEWVSAISGSGGSTYYADSVKGRFTISRDNTKNSLYLQMTSLRADDTAFYYCVKDFGPGYGTGWFDYWGPGTLVTVSS
VL: AVNWYQQLPGKAPKLLIYAAVGCPRILMRCKQDSDCLAGCVCGPNGFCGSASGVSDRFSGSKSGTSASLAISGLRSEDEADYYCASWDDSLRGYVFGTGTKVTVLG
[3]
  % reduction in binding signal: 100%
[4]
  trypsin binding signal (FU): 43300 FU

B13: KB_C08 (scFv, V domains shown)
VH: EVQLVESGGGLVRPGGSLRLSCAASGFTFSSYAMSWVRQAPGKGLEWVSAISGSGGSTYYADSVKGRFTISRDNTKNSLYLQMTSLRADDTAFYYCVKDFGPGYGTGWFDYWGPGTLVTVSS
VL: AVNWYQQLPGKAPKLLIYAAAVCPRILMRCKQDSDCLAGCVCGPNGFCGTRSGIPERFSGSKSGTSAFLAISGLRSEDEADYYCAAWDDSLSGVVFGGGTKLTVLG
[3]
  % reduction in binding signal: 100%
[4]
  trypsin binding signal (FU): 76800 FU

B14: KB_C09 (scFv, V domains shown)
VH: EVQLVESGGGLVRPGGSLRLSCAASGFTFSSYAMSWVRQAPGKGLEWVSAISGSGGSTYYADSVKGRFTISRDNTKNSLYLQMTSLRADDTAFYYCVKDFGPGYGTGWFDYWGPGTLVTVSS
VL: AVNWYQQLPGKAPKLLIYAAGRCPRILMRCKQDSDCLAGCVCGPNGFCGGGSGVPDRFSGSIDSSSNSASLTISGLRAEDEADYYCQSYDSSNHWVFGGGTKLTVLG
[3]
  % reduction in binding signal: 100%
[4]
  trypsin binding signal (FU): 89400 FU

B15: KB_C10 (scFv, V domains shown)
VH: EVQLVESGGGLVRPGGSLRLSCAASGFTFSSYAMSWVRQAPGKGLEWVSAISGSGGSTYYADSVKGRFTISRDNTKNSLYLQMTSLRADDTAFYYCVKDFGPGYGTGWFDYWGPGTLVTVSS
VL: AVNWYQQLPGKAPKLLIYAAGPCPRILMRCKQDSDCLAGCVCGPNGFCGADSGVSDRFSGSKSGTSASLAITGLQAEDEGDYYCAAWDDSLNGLVFGGGTKVTVLG
[3]
  % reduction in binding signal: 100%
[4]
  trypsin binding signal (FU): 119000 FU

B16: KB_B10 (scFv, V domains shown)
VH: EVQLVESGGGLVRPGGSLRLSCAASGFTFSSYAMSWVRQAPGKGLEWVSAISGSGGSTYYADSVKGRFTISRDNTKNSLYLQMTSLRADDTAFYYCVKDFGPGYGTGWFDYWGPGTLVTVSS
VL: QSVLTQLPSVSEAPRQRVTITCGRAMCPRILMRCKQDSDCLAGCVCGPNGFCGTGNWYQQHPGKAPKLIIFDVSKRPSGVPDRFSASKSGNTASLTISGLQAEDEADYYCNSYTSSNTWVFGGGTQLTVLG
[3]
  % reduction in binding signal: 100%
[4]
  trypsin binding signal (FU): 9270 FU

B17: KB_B11 (scFv, V domains shown)
VH: EVQLVESGGGLVRPGGSLRLSCAASGFTFSSYAMSWVRQAPGKGLEWVSAISGSGGSTYYADSVKGRFTISRDNTKNSLYLQMTSLRADDTAFYYCVKDFGPGYGTGWFDYWGPGTLVTVSS
VL: TQPPSVSEAPRQRVTITCGSRPCPRILMRCKQDSDCLAGCVCGPNGFCGSHNWYQQLPGSSPTTVIYEDNQRPSGVPDRFSGSIDRSSNSASLTISGLKTEDEADYYCQSYDSSNHRVVFGGGTKLTVLG
[3]
  % reduction in binding signal: 100%
[4]
  trypsin binding signal (FU): 10300 FU

B18: KB_B12 (scFv, V domains shown)
VH: EVQLVESGGGLVRPGGSLRLSCAASGFTFSSYAMSWVRQAPGKGLEWVSAISGSGGSTYYADSVKGRFTISRDNTKNSLYLQMTSLRADDTAFYYCVKDFGPGYGTGWFDYWGPGTLVTVSS
VL: TQPPSVSEAPRQRVTITCGERPCPRILMRCKQDSDCLAGCVCGPNGFCGANNWYQQLPGSSPTTVIYEDNQRPSGVPDRFSGSIDSSSNSASLTISGLKTEDEADYYCQSYDSSNQVFGGGTKVTVLG
[3]
  % reduction in binding signal: 97%
[4]
  trypsin binding signal (FU): 17400 FU
